Test results published in PMC12309418.
One block for each substance: values may come before it.

Tests used:
[1] = biological target: fluorescein-maleimide labeled ABD2 of PLS2 (human); assay: fluorescence polarisation; equilibrium fluorescence anisotropy in a plate reader, 10 nM FM-ABD2 with increasing RD-ABD1, 60 min at 22 °C, PLS buffer pH 8.0, quadratic isotherm fit
[2] = biological target: fluorescein-maleimide labeled ABD2 of PLS2 (human); assay: fluorescence polarisation; stopped-flow fluorescence anisotropy kinetics, 25 °C, buffer pH 7.4; association: FM-ABD2 (50 or 100 nM) with at least 10-fold excess of unlabeled RD-ABD1 (pseudo-first-order); dissociation: 25 or 50 nM FM-ABD2 bound to 50 or 100 nM RD-ABD1, competed with 7.5 to 20 μM unlabeled ABD2; Kd calculated from koff and kon
[3] = biological target: fluorescein-maleimide labeled ABD2 of PLS2 (human); assay: fluorescence polarisation; stopped-flow fluorescence anisotropy kinetics, 25 °C, buffer pH 7.8; association: FM-ABD2 (50 or 100 nM) with at least 10-fold excess of unlabeled RD-ABD1 (pseudo-first-order); dissociation: 25 or 50 nM FM-ABD2 bound to 50 or 100 nM RD-ABD1, competed with 7.5 to 20 μM unlabeled ABD2; Kd calculated from koff and kon
[4] = biological target: fluorescein-maleimide labeled ABD2 of PLS2 (human); assay: fluorescence polarisation; stopped-flow fluorescence anisotropy kinetics, 25 °C, buffer pH 6.6; association: FM-ABD2 (50 or 100 nM) with at least 10-fold excess of unlabeled RD-ABD1 (pseudo-first-order); dissociation: 25 or 50 nM FM-ABD2 bound to 50 or 100 nM RD-ABD1, competed with 7.5 to 20 μM unlabeled ABD2; Kd calculated from koff and kon
[5] = biological target: fluorescein-maleimide labeled ABD2 of PLS2 (human); assay: fluorescence polarisation; equilibrium fluorescence anisotropy in a plate reader, 10 nM FM-ABD2 with increasing RD-ABD1, 60 min at 22 °C, PLS buffer pH 7.0, quadratic isotherm fit
[6] = biological target: fluorescein-maleimide labeled ABD2 of PLS2 (human); assay: fluorescence polarisation; stopped-flow fluorescence anisotropy kinetics, 25 °C, buffer pH 8.0; association: FM-ABD2 (50 or 100 nM) with at least 10-fold excess of the unlabeled RD-ABD1 construct (pseudo-first-order); dissociation: 25 or 50 nM FM-ABD2 bound to 50 or 100 nM RD-ABD1 construct, competed with 7.5 to 20 μM unlabeled ABD2; Kd calculated from koff and kon
[7] = biological target: fluorescein-maleimide labeled ABD2 of PLS2 (human); assay: fluorescence polarisation; stopped-flow fluorescence anisotropy kinetics, 25 °C, buffer pH 7.0; association: FM-ABD2 (50 or 100 nM) with at least 10-fold excess of the unlabeled RD-ABD1 construct (pseudo-first-order); dissociation: 25 or 50 nM FM-ABD2 bound to 50 or 100 nM RD-ABD1 construct, competed with 7.5 to 20 μM unlabeled ABD2; Kd calculated from koff and kon
[8] = biological target: Skeletal actin, filamentous (F-actin) (rabbit) (UniProt P68135)
[9] = biological target: Skeletal actin, filamentous (F-actin) (rabbit) (UniProt P68135); assay: fluorescence polarisation; stopped-flow fluorescence anisotropy kinetics, pH 8.0, 25 °C; association of FM-ABD2 (50 or 100 nM) with at least 10-fold F-actin; koff could not be measured
[10] = biological target: Skeletal actin, filamentous (F-actin) (rabbit) (UniProt P68135); assay: fluorescence polarisation; equilibrium fluorescence anisotropy in a plate reader, 5 nM FM-ABD2 with F-actin stabilized with 1.0 uM phalloidin, PLS buffer pH 8.0, 22 °C, quadratic isotherm
[11] = biological target: PLS2 RD-ABD1 (a.a. 1-385) (human) (UniProt P13796); assay: fluorescence polarisation; equilibrium fluorescence anisotropy, pH 7.0, PLS buffer, 22 °C, 60 min; 10 nM FM-ABD2 with RD-ABD1; quadratic isotherm
PLS2 RD-ABD1 (a.a. 1-385) (human), sequence (P13796 1-385): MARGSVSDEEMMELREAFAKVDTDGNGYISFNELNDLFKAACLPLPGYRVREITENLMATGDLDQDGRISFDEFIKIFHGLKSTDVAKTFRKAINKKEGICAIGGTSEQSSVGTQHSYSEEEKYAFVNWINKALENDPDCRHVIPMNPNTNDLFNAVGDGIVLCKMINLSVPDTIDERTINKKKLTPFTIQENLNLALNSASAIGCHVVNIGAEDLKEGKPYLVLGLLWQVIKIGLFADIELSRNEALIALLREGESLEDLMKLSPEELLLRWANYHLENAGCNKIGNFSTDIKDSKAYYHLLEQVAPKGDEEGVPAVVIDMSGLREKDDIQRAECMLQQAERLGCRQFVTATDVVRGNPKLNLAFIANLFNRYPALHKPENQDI

[12] = biological target: Skeletal actin, filamentous (F-actin) (rabbit) (UniProt P68135); assay: fluorescence polarisation; equilibrium fluorescence anisotropy, pH 8.0, PLS buffer, 22 °C, 60 min; 5 nM FM-ABD2 with F-actin stabilized with 1.0 μM phalloidin; quadratic isotherm
[13] = biological target: Skeletal actin, filamentous (F-actin) (rabbit) (UniProt P68135); assay: fluorescence polarisation; equilibrium fluorescence anisotropy, pH 7.0, PLS buffer, 22 °C, 60 min; 5 nM FM-ABD2 with F-actin stabilized with 1.0 μM phalloidin; quadratic isotherm
[14] = biological target: PLS2 RD-ABD1-H207Y (human) (UniProt P13796); assay: fluorescence polarisation; stopped-flow fluorescence anisotropy kinetics of FM-ABD2 with RD-ABD1-H207K and RD-ABD1-H207Y, 25 °C, pH 7.0 and 8.0 (fold changes for both pH values together); dissociation with excess unlabeled ABD2
[15] = biological target: PLS2 RD-ABD1-H207K (human) (UniProt P13796); assay: as above
[16] = biological target: Skeletal actin, filamentous (F-actin) (rabbit) (UniProt P68135); assay: fluorescence polarisation; equilibrium fluorescence anisotropy in a plate reader, 5 nM FM-ABD2 with F-actin stabilized with 1.0 uM phalloidin, PLS buffer pH 7.0, 22 °C, quadratic isotherm
[17] = biological target: Skeletal actin, filamentous (F-actin) (rabbit) (UniProt P68135); assay: fluorescence polarisation; stopped-flow fluorescence anisotropy kinetics, pH 6.8, 25 °C; association: FM-ABD2 (50 or 100 nM) with at least 10-fold F-actin; dissociation: from phalloidin-stabilized F-actin with excess unlabeled ABD2; Kd from koff and kon
[18] = biological target: Skeletal actin, filamentous (F-actin) (rabbit) (UniProt P68135); assay: fluorescence polarisation; stopped-flow fluorescence anisotropy kinetics, pH 7.4, 25 °C; association: FM-ABD2 (50 or 100 nM) with at least 10-fold F-actin; dissociation: from phalloidin-stabilized F-actin with excess unlabeled ABD2; Kd from koff and kon
[19] = biological target: Skeletal actin, filamentous (F-actin) (rabbit) (UniProt P68135); assay: fluorescence polarisation; stopped-flow fluorescence anisotropy kinetics, pH 7.0, 25 °C; association: FM-ABD2 (50 or 100 nM) with at least 10-fold F-actin; dissociation: from phalloidin-stabilized F-actin with excess unlabeled ABD2; Kd from koff and kon
[20] = biological target: PLS2 RD-ABD1 (a.a. 1-385) (human) (UniProt P13796); assay: fluorescence polarisation; stopped-flow fluorescence anisotropy, 25 °C, PLS buffer pH 7.4; association of FM-ABD2 (50 or 100 nM) with excess RD-ABD1 (kon from the slope of kobs, line forced through koff); dissociation by competition with 7.5 to 20 uM unlabeled ABD2 (koff)
[21] = biological target: PLS2 RD-ABD1 (a.a. 1-385) (human) (UniProt P13796); assay: fluorescence polarisation; stopped-flow fluorescence anisotropy, 25 °C, PLS buffer pH 8.0; association of FM-ABD2 (50 or 100 nM) with excess RD-ABD1 (kon from the slope of kobs, line forced through koff); dissociation by competition with 7.5 to 20 uM unlabeled ABD2 (koff)
[22] = biological target: PLS2 RD-ABD1 (a.a. 1-385) (human) (UniProt P13796); assay: fluorescence polarisation; stopped-flow fluorescence anisotropy, 25 °C, PLS buffer pH 7.0; association of FM-ABD2 (50 or 100 nM) with excess RD-ABD1 (kon from the slope of kobs, line forced through koff); dissociation by competition with 7.5 to 20 uM unlabeled ABD2 (koff)
[23] = biological target: Skeletal actin, filamentous (F-actin) (rabbit) (UniProt P68135); assay: fluorescence polarisation; stopped-flow fluorescence anisotropy kinetics, pH 6.6, 25 °C; association: FM-ABD2 (50 or 100 nM) with at least 10-fold F-actin; dissociation: from phalloidin-stabilized F-actin with excess unlabeled ABD2; Kd from koff and kon
[24] = biological target: PLS2 RD-ABD1 (a.a. 1-385) (human) (UniProt P13796); assay: fluorescence polarisation; stopped-flow fluorescence anisotropy kinetics of FM-ABD2 with RD-ABD1, 25 °C, pH 6.6 to 8.0 (the text tells the results for the whole pH range together); dissociation with excess unlabeled ABD2
[25] = biological target: PLS2 RD-ABD1 (a.a. 1-385) (human) (UniProt P13796); assay: fluorescence polarisation; stopped-flow fluorescence anisotropy, 25 °C, PLS buffer pH 6.6; association of FM-ABD2 (50 or 100 nM) with excess RD-ABD1 (kon from the slope of kobs, line forced through koff); dissociation by competition with 7.5 to 20 uM unlabeled ABD2 (koff)
[26] = biological target: PLS2 RD-ABD1 (a.a. 1-385) (human) (UniProt P13796); assay: fluorescence polarisation; stopped-flow fluorescence anisotropy, 25 °C, PLS buffer pH 7.8; association of FM-ABD2 (50 or 100 nM) with excess RD-ABD1 (kon from the slope of kobs, line forced through koff); dissociation by competition with 7.5 to 20 uM unlabeled ABD2 (koff)
[27] = biological target: Skeletal actin, filamentous (F-actin) (rabbit) (UniProt P68135); assay: fluorescence polarisation; stopped-flow fluorescence anisotropy kinetics, pH 7.8, 25 °C; association of FM-ABD2 (50 or 100 nM) with at least 10-fold F-actin; koff could not be measured

PLS2 RD-ABD1 (a.a. 1–385), sequence (P13796 1-385): as above
PLS2-core (a.a. 83–627), sequence (P13796 83-627): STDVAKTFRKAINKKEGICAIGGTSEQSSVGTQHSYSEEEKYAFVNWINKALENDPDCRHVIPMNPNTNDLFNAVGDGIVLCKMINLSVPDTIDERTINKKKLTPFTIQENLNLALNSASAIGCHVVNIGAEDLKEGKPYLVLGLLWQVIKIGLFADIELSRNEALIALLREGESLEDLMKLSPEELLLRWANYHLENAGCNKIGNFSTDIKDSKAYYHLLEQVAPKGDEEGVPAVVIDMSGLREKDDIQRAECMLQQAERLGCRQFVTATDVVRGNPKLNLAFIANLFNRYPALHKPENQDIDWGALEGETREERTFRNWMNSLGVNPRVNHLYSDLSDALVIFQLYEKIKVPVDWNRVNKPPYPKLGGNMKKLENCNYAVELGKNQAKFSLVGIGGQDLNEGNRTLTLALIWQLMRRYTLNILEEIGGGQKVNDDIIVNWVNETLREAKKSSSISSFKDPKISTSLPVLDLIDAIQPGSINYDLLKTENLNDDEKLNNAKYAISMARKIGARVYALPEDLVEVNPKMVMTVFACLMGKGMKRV

Substance: PLS2 RD-ABD1 (a.a. 1–385) (from UniProt P13796 1-385) (domain or fragment)
Kd [1]: 8.7 nM
Kd [2]: 11 nM
koff [2]: 0.013 s⁻¹
kon [2]: 1.24e+06 M⁻¹ s⁻¹
Kd [3]: 7.7 nM
koff [3]: 0.008 s⁻¹
kon [3]: 1.07e+06 M⁻¹ s⁻¹
Kd [4]: 5.1 nM
koff [4]: 0.01 s⁻¹
kon [4]: 1.94e+06 M⁻¹ s⁻¹
Kd [5]: 4.5 nM
Kd [6]: 7.6 nM
koff [6]: 0.008 s⁻¹
kon [6]: 1.01e+06 M⁻¹ s⁻¹
Kd [7]: 5.7 nM
koff [7]: 0.009 s⁻¹
kon [7]: 1.6e+06 M⁻¹ s⁻¹

Substance: PLS2 RD-ABD1-H207K (from UniProt P13796 1-385) (domain or fragment)
kon [6]: 1.12e+06 M⁻¹ s⁻¹
Kd [7]: 24 nM
koff [7]: 0.039 s⁻¹
kon [7]: 1.59e+06 M⁻¹ s⁻¹

Substance: PLS2 RD-ABD1-H207Y (from UniProt P13796 1-385) (domain or fragment)
Kd [6]: 2.2 nM
koff [6]: 0.0026 s⁻¹
kon [6]: 1.21e+06 M⁻¹ s⁻¹
Kd [7]: 1.1 nM
koff [7]: 0.0021 s⁻¹
kon [7]: 1.87e+06 M⁻¹ s⁻¹

Continued, values first:

fold decrease in F-actin bundling by PLS2-core (light scattering; low-speed centrifugation), pH 8.0 against pH 7.0 [8]: 2 fold
Substance: PLS2-core (a.a. 83–627) (from UniProt P13796 83-627) (domain or fragment)

kon [9]: 1.45e+06 M⁻¹ s⁻¹
Kd [10]: 0.613 nM
fold stronger association at pH 7.0 than at pH 8.0 [11]: 2 fold
Kd [12]: 1.7 nM
Kd [13]: 5 nM
fold change of kon against WT RD-ABD1 [14]: < 1.2 fold
fold decrease of koff against WT RD-ABD1 [14]: 3 to 4 fold
fold change of kon against WT RD-ABD1 [15]: < 1.2 fold
fold increase of koff against WT RD-ABD1 [15]: 4 to 12 fold
Kd [16]: 2.88 nM
Kd [17]: 13 nM
koff [17]: 0.0066 s⁻¹
kon [17]: 502000 M⁻¹ s⁻¹
Kd [18]: 12 nM
koff [18]: 0.0073 s⁻¹
kon [18]: 601000 M⁻¹ s⁻¹
Kd [19]: 9.5 nM
koff [19]: 0.0057 s⁻¹
kon [19]: 600000 M⁻¹ s⁻¹
koff [20]: 0.0135 s⁻¹
kon [20]: 1.24e+06 M⁻¹ s⁻¹
koff [21]: 0.0077 s⁻¹
kon [21]: 1.01e+06 M⁻¹ s⁻¹
koff [22]: 0.00905 s⁻¹
kon [22]: 1.6e+06 M⁻¹ s⁻¹
Kd [23]: 15 nM
koff [23]: 0.0073 s⁻¹
kon [23]: 479000 M⁻¹ s⁻¹
fold slower kon at pH 8.0 than at pH 6.6 [24]: 2 fold
koff [24]: 0.008 s⁻¹
koff [25]: 0.00992 s⁻¹
kon [25]: 1.94e+06 M⁻¹ s⁻¹
koff [26]: 0.00826 s⁻¹
kon [26]: 1.07e+06 M⁻¹ s⁻¹
kon [27]: 1.28e+06 M⁻¹ s⁻¹
Substance: fluorescein-maleimide labeled PLS2 ABD2 (FM-ABD2) (domain or fragment)
